In US20210206813:

How the values were obtained:
[1] = biological target: MidT substrate domain fused to the omega subunit of RNA polymerase
[2] = biological target: p130cas substrate domain fused to the omega subunit of RNA polymerase

B1: protein tyrosine phosphatase 1B (PTP1B) (protein)
chain: MEMEKEFEQIDKSGSWAAIYQDIRHEASDFPCRVAKLPKNKNRNRYRDVSPFDHSRIKLHQEDNDYINASLIKMEEAQRSYILTQGPLPNTCGHFWEMVWEQKSRGVVMLNRVMEKGSLKCAQYWPQKEEKEMIFEDTNLKLTLISEDIKSYYTVRQLELENLTTQETREILHFHYTTWPDFGVPESPASFLNFLFKVRESGSLSPEHGPVVVHSSAGIGRSGTFCLADTCLLLMDKRKDPSSVDIKKVLLEMRKFRMGLIQTADQLRFSYLAVIEGAKFIMGDSSVQDQWKELSHEDLEPPPEHIPPPPRPPKRILEPHN
[1]
  difference in luminescence between systems containing PTP1B or PTP1B (C215S): The difference in luminescence between systems containing PTP1B or PTP1B (C215S) was greatest for MidT

B2: Src kinase (protein)
chain: MSKPQTQGLAKDAWEIPRESLRLEVKLGQGCFGEVWMGTWNGTTRVAIKTLKPGTMSPEAFLQEAQVMKKLRHEKLVQLYAVVSEEPIYIVTEYMSKGSLLDFLKGETGKYLRLPQLVDMAAQIASGMAYVERMNYVHRDLRAANILVGENLVCKVADFGLARLIEDNEYTARQGAKFPIKWTAPEAALYGRFTIKSDVWSFGILLTELTTKGRVPYPGMVNREVLDQVERGYRMPCPPECPESLHDLMCQCWRKEPEERPTFEYLQAFLEDYFTSTEPQYQPGENL
[2]
  luminescence (LuxAB), bacterial two-hybrid system with induced Src: luminescence increased most prominently for p130cas and MidT
[1]
  luminescence (LuxAB), bacterial two-hybrid system with induced Src: luminescence increased most prominently for p130cas and MidT
